How the values were obtained:
[1] = biological target: T1, GST-preS1(1-56)-strep of HBV genotype A (hepatitis B virus genotype A, UniProt P08515 1-218 = GST); assay: BLI (Octet RED384), antibody captured on anti-human Fc tips, antigen 25-1.5625 nM in solution, 1:1 model
T1 construct: Expressed in E. coli; also called recombinant preS1 of HBV genotype A; preS1 antigen of genotype A; not shown: strep tag

[2] = biological target: T1, GST-preS1(1-56)-strep of HBV genotype A; assay: indirect ELISA, genotype A GST-preS1(1-56)-strep (NPLGFFP) coated, serially diluted antibody
[3] = biological target: T2, L1CAM on the human ovarian cancer cell line SKOV3 (human, UniProt P32004 20-1257); assay: flow cytometry on SKOV3 cells, anti-human IgG Fc-FITC
T2 construct: whole, on cells; The cells express L1CAM but not preS1; also called SKOV3 cells

[4] = biological target: T3, GST-preS1(1-56)-strep of HBV genotype C (hepatitis B virus genotype C, UniProt P08515 1-218 = GST); assay: indirect ELISA, genotype C GST-preS1(1-56)-strep coated (100 ng), antibody from culture supernatant, anti-human IgG Fc-HRP
T3 construct: Expressed in E. coli; also called wild type preS1 antigen; recombinant preS1 of genotype C; not shown: strep tag

[5] = biological target: T4, GST-preS1(1-56)-strep of HBV genotype B (hepatitis B virus genotype B, UniProt P08515 1-218 = GST); assay: indirect ELISA, GST-preS1(1-56)-strep coated, serially diluted AbS0, anti-human IgG Fc-HRP
T4 construct: Expressed in E. coli; also called recombinant preS1 of genotype B; not shown: strep tag

[6] = biological target: T3, GST-preS1(1-56)-strep of HBV genotype C; assay: as above
[7] = biological target: T5, GST-preS1(1-56)-strep of HBV genotype D (hepatitis B virus genotype D, UniProt P08515 1-218 = GST); assay: as above
T5 construct: Expressed in E. coli; also called recombinant preS1 of genotype D; not shown: strep tag

[8] = biological target: T1, GST-preS1(1-56)-strep of HBV genotype A; assay: as above
BSA = biological target: T6, BSA (Bos taurus, UniProt P02769); assay: indirect ELISA of monoclonal Fab phage on coated antigen, anti-M13-HRP
T6 construct: control antigen of the phage ELISA; also called bovine serum albumin
T6 sequence (P02769 25-607 limits assumed): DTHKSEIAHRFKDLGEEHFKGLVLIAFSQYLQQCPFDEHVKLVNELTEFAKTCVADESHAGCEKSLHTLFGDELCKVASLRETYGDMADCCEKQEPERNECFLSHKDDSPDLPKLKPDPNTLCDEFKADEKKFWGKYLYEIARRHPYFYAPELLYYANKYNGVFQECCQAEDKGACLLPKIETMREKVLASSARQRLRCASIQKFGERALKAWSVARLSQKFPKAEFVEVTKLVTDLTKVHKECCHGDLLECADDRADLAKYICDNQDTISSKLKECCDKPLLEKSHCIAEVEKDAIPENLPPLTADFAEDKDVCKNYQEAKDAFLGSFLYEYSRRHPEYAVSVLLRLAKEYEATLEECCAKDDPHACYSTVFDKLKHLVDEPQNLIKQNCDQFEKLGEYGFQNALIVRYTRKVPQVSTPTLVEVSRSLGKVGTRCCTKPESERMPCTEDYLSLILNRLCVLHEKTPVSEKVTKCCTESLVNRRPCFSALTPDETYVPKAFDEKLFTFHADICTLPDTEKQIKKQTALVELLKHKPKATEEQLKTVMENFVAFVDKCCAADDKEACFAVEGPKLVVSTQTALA

T1 sequence (P08515 whole entry): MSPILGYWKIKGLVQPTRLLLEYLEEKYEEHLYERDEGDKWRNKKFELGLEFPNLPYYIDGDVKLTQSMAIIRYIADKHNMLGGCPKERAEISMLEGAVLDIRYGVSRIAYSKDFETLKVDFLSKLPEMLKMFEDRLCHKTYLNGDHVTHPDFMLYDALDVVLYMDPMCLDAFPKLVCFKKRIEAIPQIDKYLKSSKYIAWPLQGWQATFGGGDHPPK
T3 sequence (P08515 whole entry): as above
T4 sequence (P08515 whole entry): as above
T5 sequence (P08515 whole entry): as above
T2 sequence (P32004 20-1257): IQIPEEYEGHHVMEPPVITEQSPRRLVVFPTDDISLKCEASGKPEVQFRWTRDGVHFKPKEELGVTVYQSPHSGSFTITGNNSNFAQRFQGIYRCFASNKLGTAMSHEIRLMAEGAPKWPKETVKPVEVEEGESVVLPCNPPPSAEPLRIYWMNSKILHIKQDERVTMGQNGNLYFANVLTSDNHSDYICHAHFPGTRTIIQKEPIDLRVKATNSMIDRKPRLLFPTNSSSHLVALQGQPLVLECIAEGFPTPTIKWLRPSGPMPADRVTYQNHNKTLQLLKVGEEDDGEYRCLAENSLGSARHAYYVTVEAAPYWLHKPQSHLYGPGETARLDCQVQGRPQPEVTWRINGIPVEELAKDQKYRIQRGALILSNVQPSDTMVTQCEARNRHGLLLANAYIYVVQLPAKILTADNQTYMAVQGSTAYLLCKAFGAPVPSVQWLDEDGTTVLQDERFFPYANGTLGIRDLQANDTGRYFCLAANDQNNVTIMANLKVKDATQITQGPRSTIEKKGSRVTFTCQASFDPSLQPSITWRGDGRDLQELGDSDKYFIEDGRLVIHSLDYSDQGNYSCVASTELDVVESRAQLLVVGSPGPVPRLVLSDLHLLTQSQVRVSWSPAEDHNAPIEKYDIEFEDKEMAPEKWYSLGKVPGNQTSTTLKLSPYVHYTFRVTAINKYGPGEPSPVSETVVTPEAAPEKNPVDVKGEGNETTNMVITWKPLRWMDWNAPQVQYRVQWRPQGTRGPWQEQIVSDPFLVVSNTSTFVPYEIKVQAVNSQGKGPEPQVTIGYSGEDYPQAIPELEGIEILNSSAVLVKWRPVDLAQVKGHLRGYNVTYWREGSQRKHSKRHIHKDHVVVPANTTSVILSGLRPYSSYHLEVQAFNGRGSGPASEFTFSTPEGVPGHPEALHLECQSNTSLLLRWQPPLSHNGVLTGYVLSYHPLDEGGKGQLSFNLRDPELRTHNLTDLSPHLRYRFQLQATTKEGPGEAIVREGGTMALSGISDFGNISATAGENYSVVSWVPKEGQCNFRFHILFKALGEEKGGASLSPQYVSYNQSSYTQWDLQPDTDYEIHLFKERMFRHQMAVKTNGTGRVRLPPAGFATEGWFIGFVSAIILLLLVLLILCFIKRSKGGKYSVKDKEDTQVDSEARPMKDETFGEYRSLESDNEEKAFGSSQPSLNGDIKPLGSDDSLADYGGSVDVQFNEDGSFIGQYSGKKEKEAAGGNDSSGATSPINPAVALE

B1: AbS0 antibody (AbS0 Fab converted into human IgG1) (antibody, V domains shown)
VH: EVQLVESGGGLVQPGGSLRLSCAASGFTFSTYAMSWVRQAPGKGLEWVSSISQSGGYTNYADSVKGRFTISRDNSKNTLYLQMNSLRAEDTAVYYCAKVIYASLDYWGQGTLVTVSS
VL: DIQMTQSPSSLSASVGDRVTITCRASQSIASYLNWYQQKPGKAPKLLIYATSRLQSGVPSRFSGSGSGTDFTLTISSLQPEDFATYYCQQSYSSPYTFGQGTKVEIK
notes: also called AbS0 mAb; wild type AbS0
Kd [1]: 0.5 nM
koff [1]: 0.000194 s⁻¹
kon [1]: 392000 M⁻¹ s⁻¹
EC50 (read off the curve) [2]: ~0.06 µg/mL
binding result [3]: no binding
EC50 (read off the curve) [4]: ~0.003 µg/mL
EC50 (read off the curve) [5]: ~0.04 µg/mL
EC50 (read off the curve) [6]: ~0.04 µg/mL
EC50 (read off the curve) [7]: ~0.04 µg/mL
EC50 (read off the curve) [8]: ~0.04 µg/mL

B2: AbS0 Fab phage (Fab, V domains shown)
VH: B1 VH
VL: B1 VL
binding result (BSA): no binding

Reference: US20240254200A1 (APITBIO, published 2024)
